Changes are numbered by the printed parent chain.
B1: mutant VHH antibody 2bS13-97H (VHH)
VHH: QVQLVESGGGLVQAGGSLRLSCAASGISFAINNVAWYRQAPGKQRDLVALIDKYDTGNIADSVKGRFSISRDNAKNTAYLQMNSLKPEDTAVYYCNHLGTWIRAGPYWGQGTQVTVSS
B2: mutant VHH antibody 2bS13-100H (VHH)
VHH: B1 VHH with H97A, T100H
notes: also called 2bS13-100H/PB (as ligand on the carrier)
B3: mutant VHH antibody 2bS13-102H (VHH)
VHH: B1 VHH with H97A, I102H
notes: also called 2b513-102H

molecular target: T1, trastuzumab Fab; experiment: Biacore SPR, trastuzumab Fab immobilized, VHH as analyte, pH 7.4
T1 construct: Made by papain digestion of trastuzumab (Herceptin); also called Fab of trastuzumab (Herceptin)
Description: Those VHH antibodies were dispersed in HBS-EP (10 mM Hepes, 150 mM NaCl, 3 mM EDTA, and 0.005% Tween-20) to produce 12.5 to 150 nM VHH antibody solutions. The trastuzumab Fab prepared in Test Example 1 was immobilized on a Biacore sensor chip, and each VHH antibody solution was applied thereto. The measurements were performed under neutral conditions (pH 7.4). Curve fitting utilizing binding model was applied to association and dissociation behaviors, whereby evaluating the association rate constant (Kon), the dissociation rate constant (Koff), and the affinity (KD). Furthermore, this sensor chip was washed with an acidic eluent (10 mM Glycine-HCl+0.5M NaCl, pH 2.0) to measure a signal. From the obtained signal shape, the elution behavior of Ig by the acid was examined.

| Binder | Kd [nM] | koff [s⁻¹] | kon [M⁻¹ s⁻¹] |
| --- | --- | --- | --- |
| B1 | 0.205 | 0.004 | 1.97e+07 |
| B2 | 0.376 | 0.0078 | 2.08e+07 |
| B3 | 1.44 | 0.0227 | 1.58e+07 |

Source: patent US20210261606A1 (JSR, published 2021)
